# Measurements from patent publication US20240076403A1 (SIMCERE ZAIMING PHARMACEUTICAL, published 2024).
# Assays:
# [1] = molecular target: T1, monkey HER2-His protein (Sino Biological, Cat. No. 90295-C08H) (monkey); assay: ELISA, 0.001 nM
# T1 construct: also called monkey HER2 protein
# [2] = molecular target: T1, monkey HER2-His protein (Sino …); assay: ELISA, 0.0001 nM
# [3] = molecular target: T1, monkey HER2-His protein (Sino …); assay: ELISA, 100 nM
# [4] = molecular target: T1, monkey HER2-His protein (Sino …); assay: ELISA, 10 nM
# [5] = molecular target: T1, monkey HER2-His protein (Sino …); assay: ELISA, 0.00001 nM
# [6] = molecular target: T1, monkey HER2-His protein (Sino …); assay: ELISA, 0.1 nM
# [7] = molecular target: T1, monkey HER2-His protein (Sino …); assay: ELISA, 1 nM
# [8] = molecular target: T1, monkey HER2-His protein (Sino …); assay: ELISA, 0.01 nM
# [9] = molecular target: T2, recombinant human HER2-His protein (human, UniProt P04626 23-652, limits assumed); assay: SPR, antibody captured on Protein A chip, human HER2-His analyte, 1:1 model
# T2 construct: also called human HER2 protein; not shown: His tag
# Description: The sample and running buffer were HBS-EP+ (10 mM HEPES, 150 mM NaCl, 3 mM EDTA, 0.05% surfactant P20) (GE Healthcare; BR-1006-69). The flow cell was set at 25° C. The sample block was set at 16° C. Both were pretreated with the running buffer. In each cycle, first, the antibody to be tested was captured using the Protein A chip, and then a single concentration of HER2 antigen protein was injected. The association and dissociation processes of the antibody with the antigen protein were recorded, and finally, the chip was regenerated using Glycine pH 1.5 (GE Healthcare; BR-1003-54). The association was determined by injecting different concentrations of recombinant human HER2-His in the solution and maintaining for 240 s, wherein the flow rate was 30 μL/min, and the protein was diluted in a 1:1 dilution ratio from 200 nM (see detailed results for actual concentrations tested) to obtain 5 concentrations in total. The dissociation phase was monitored for up to 600 s and triggered by switching from the sample solution to the running buffer. The surface was regenerated by washing with 10 mM glycine solution (pH 1.5) at a flow rate of 30 μL/min for 30 s. The difference in bulk refractive index was corrected by subtracting the responses obtained from the goat anti-human Fc surface. Blank injections were also subtracted (=double referencing). To calculate the apparent KD and other kinetic parameters, the Langmuir 1:1 model was used.
# monkey HER2-His protein = molecular target: T3, monkey HER2-His protein (monkey); assay: SPR, antibody captured on Protein A chip, monkey HER2-His analyte, 1:1 model
# T3 construct: Bought protein; also called monkey HER2 protein
Binder,OD450 [1],OD450 [2],OD450 [3],OD450 [4],OD450 [5],OD450 [6],OD450 [7],OD450 [8],Kd [9] [nM],koff [9] [s⁻¹],kon [9] [M⁻¹ s⁻¹],Kd (monkey HER2-His protein) [nM],koff (monkey HER2-His protein) [s⁻¹],kon (monkey HER2-His protein) [M⁻¹ s⁻¹]
"Tab050 (2C4 human IgG1, Pertuzumab) (antibody, V domains shown, control antibody, human IgG1) VH: EVQLVESGGGLVQPGGSLRLSCAASGFTFTDYTMDWVRQAPGKGLEWVADVNPNSGGSIYNQRFKGRFTLSVDRSKNTLYLQMNSLRAEDTAVYYCARNLGPSFYFDYWGQGTLVTVSS VL: DIQMTQSPSSLSASVGDRVTITCKASQDVSIGVAWYQQKPGKAPKLLIYSASYRYTGVPSRFSGSGSGTDFTLTISSLQPEDFATYYCQQYYIYPYTFGQGTKVEIKR",0.06,0.06,2.42,2.15,0.05,1.11,2.04,–,–,–,–,–,–,–
"Tab048 (FRP5 human IgG1) (antibody, V domains shown, control antibody, human IgG1) VH: QVQLQQSGPELKKPGETVKISCKASGYPFTNYGMNWVKQAPGQGLKWMGWINTSTGESTFADDFKGRFDFSLETSANTAYLQINNLKSEDMATYFCARWEVYHGYVPYWGQGTTVTVSS VL: DIQLTQSHKFLSTSVGDRVSITCKASQDVYNAVAWYQQKPGQSPKLLIYSASSRYTGVPSRFTGSGSGPDFTFTISSVQAEDLAVYFCQQHFRTPFTFGSGTKLEIKR",0.11,0.05,2.35,2.04,0.05,1.83,2.24,0.52,–,–,–,–,–,–
"Tab048 (FRP5 human IgG1) (antibody, V domains shown, Control antibody in human IgG1 form) VH: QVQLQQSGPELKKPGETVKISCKASGYPFTNYGMNWVKQAPGQGLKWMGWINTSTGESTFADDFKGRFDFSLETSANTAYLQINNLKSEDMATYFCARWEVYHGYVPYWGQGTTVTVSS VL: DIQLTQSHKFLSTSVGDRVSITCKASQDVYNAVAWYQQKPGQSPKLLIYSASSRYTGVPSRFTGSGSGPDFTFTISSVQAEDLAVYFCQQHFRTPFTFGSGTKLEIKR",–,–,–,–,–,–,–,–,0.337,7.45e-05,221000,0.617,0.000118,191000
